{"source": "paper PMC10250233", "about": "“RPA engages telomeric G-quadruplexes more effectively than CST”", "key": {"[1]": {"target": "T1, CST (CTC1-STN1-TEN1) (human, UniProt Q2NKJ3;Q9H668;Q86WV5 1-1217;1-368;1-123)", "T1 sequence (Q2NKJ3 whole entry, chain 1 of 3)": "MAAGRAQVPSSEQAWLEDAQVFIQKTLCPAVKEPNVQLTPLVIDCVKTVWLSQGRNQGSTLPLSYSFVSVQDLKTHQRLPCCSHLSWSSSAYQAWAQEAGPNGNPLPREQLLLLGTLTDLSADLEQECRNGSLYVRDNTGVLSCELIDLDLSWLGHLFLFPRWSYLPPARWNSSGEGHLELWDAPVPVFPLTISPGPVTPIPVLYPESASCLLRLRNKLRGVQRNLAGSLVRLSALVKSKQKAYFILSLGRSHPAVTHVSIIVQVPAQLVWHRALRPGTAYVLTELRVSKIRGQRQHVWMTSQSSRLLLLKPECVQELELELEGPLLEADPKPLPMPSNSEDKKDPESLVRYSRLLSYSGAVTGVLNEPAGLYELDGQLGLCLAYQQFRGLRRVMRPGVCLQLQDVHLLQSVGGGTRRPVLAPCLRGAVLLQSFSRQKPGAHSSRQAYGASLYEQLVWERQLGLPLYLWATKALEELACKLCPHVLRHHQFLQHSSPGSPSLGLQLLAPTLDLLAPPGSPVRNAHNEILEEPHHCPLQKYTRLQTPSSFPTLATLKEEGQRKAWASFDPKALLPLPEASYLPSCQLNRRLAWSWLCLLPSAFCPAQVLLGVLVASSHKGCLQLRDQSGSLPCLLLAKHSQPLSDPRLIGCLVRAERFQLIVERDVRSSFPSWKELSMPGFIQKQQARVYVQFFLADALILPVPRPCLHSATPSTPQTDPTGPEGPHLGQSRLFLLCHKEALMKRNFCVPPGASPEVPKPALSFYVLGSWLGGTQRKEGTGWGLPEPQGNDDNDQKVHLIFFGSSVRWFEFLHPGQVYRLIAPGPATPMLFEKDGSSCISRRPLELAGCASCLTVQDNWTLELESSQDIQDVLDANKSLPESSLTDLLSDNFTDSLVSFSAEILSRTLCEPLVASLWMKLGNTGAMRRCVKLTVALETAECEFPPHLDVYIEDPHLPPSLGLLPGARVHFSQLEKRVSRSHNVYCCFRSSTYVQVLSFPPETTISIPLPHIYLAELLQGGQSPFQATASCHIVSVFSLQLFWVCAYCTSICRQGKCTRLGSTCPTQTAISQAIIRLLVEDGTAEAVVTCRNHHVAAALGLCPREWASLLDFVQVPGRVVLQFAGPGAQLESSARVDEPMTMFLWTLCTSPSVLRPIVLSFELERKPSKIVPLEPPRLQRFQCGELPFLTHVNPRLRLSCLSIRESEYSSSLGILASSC", "T1 sequence (Q9H668 whole entry, chain 2 of 3)": "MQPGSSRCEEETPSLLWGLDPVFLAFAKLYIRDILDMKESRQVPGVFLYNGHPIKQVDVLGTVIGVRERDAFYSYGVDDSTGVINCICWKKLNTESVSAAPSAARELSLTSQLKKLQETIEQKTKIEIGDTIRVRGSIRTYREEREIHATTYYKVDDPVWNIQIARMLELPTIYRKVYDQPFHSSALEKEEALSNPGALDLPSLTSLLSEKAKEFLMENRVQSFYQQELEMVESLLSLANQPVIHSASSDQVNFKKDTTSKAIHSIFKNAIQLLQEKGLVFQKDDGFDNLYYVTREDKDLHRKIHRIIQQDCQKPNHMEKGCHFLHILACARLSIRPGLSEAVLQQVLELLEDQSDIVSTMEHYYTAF", "T1 sequence (Q86WV5 whole entry, chain 3 of 3)": "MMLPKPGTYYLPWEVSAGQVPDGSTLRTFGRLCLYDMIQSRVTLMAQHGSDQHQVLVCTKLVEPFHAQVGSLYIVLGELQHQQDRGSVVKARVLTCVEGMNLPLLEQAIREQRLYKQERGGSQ", "experiment": "fluorescence anisotropy; 200 mM NaCl; FA: 200 mM NaCl, KCl or LiCl, 20 mM HEPES pH 7.4, 1 mM DTT, 22-25 C, 375 or 750 pM oligo, Kd,app +/- SEM; EMSA: 20 mM HEPES pH 7.4, 200 mM KCl, 1 nM 32P oligo", "details": "protein: recombinant, tags: 2xFLAG N-term on CTC1, 6xHis N-term on STN1 and TEN1, copies: 1;1;1, label: 5' fluorescein"}, "[2]": {"target": "T2, RPA WT (RPA70-RPA32-RPA14) (human, UniProt P27694;P15927;P35244 1-616;1-270;1-121)", "T2 sequence (P27694 whole entry, chain 1 of 3)": "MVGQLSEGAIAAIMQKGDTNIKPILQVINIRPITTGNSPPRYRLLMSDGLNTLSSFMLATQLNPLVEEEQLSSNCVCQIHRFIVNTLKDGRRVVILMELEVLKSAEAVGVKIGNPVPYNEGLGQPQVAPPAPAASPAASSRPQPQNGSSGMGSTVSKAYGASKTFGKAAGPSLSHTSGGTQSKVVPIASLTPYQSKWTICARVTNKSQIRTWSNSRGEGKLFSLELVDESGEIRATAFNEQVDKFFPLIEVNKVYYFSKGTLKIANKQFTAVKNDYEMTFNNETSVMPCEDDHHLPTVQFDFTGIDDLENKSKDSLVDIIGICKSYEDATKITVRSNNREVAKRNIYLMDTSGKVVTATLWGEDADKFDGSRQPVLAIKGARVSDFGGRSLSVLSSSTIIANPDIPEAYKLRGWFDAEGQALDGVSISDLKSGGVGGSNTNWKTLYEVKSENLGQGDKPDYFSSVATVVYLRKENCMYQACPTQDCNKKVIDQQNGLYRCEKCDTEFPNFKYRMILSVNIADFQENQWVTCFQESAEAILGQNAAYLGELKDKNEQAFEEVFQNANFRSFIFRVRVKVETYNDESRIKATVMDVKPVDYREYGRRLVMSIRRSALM", "T2 sequence (P15927 whole entry, chain 2 of 3)": "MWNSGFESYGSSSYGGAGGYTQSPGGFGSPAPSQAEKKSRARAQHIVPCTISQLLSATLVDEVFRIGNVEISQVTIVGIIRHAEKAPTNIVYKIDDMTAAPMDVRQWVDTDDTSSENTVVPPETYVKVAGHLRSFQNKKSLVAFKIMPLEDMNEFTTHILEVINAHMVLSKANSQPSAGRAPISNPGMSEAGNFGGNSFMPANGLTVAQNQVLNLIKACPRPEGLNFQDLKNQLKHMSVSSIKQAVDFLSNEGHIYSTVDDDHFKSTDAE", "T2 sequence (P35244 whole entry, chain 3 of 3)": "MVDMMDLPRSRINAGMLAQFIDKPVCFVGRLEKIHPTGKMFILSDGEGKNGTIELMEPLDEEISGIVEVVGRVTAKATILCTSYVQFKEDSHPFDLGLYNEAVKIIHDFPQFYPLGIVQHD", "experiment": "fluorescence anisotropy; 200 mM NaCl; FA: 200 mM NaCl, KCl or LiCl, 20 mM HEPES pH 7.4, 1 mM DTT, 22-25 C, 375 or 750 pM oligo, Kd,app +/- SEM; EMSA: 20 mM HEPES pH 7.4, 200 mM KCl, 1 nM 32P oligo", "details": "protein: recombinant, tags: 6xHis N-term on RPA70 and RPA14, copies: 1;1;1, label: 5' fluorescein, linear in LiCl"}, "[3]": {"target": "T1, CST (CTC1-STN1-TEN1)", "experiment": "fluorescence anisotropy; 200 mM LiCl; FA: 200 mM NaCl, KCl or LiCl, 20 mM HEPES pH 7.4, 1 mM DTT, 22-25 C, 375 or 750 pM oligo, Kd,app +/- SEM; EMSA: 20 mM HEPES pH 7.4, 200 mM KCl, 1 nM 32P oligo", "details": "protein: recombinant, tags: 2xFLAG N-term on CTC1, 6xHis N-term on STN1 and TEN1, copies: 1;1;1, label: 5' fluorescein, linear in LiCl"}, "[4]": {"target": "T2, RPA WT (RPA70-RPA32-RPA14)", "experiment": "fluorescence anisotropy; 200 mM LiCl; FA: 200 mM NaCl, KCl or LiCl, 20 mM HEPES pH 7.4, 1 mM DTT, 22-25 C, 375 or 750 pM oligo, Kd,app +/- SEM; EMSA: 20 mM HEPES pH 7.4, 200 mM KCl, 1 nM 32P oligo", "details": "protein: recombinant, tags: 6xHis N-term on RPA70 and RPA14, copies: 1;1;1, label: 5' fluorescein, linear in LiCl"}, "[5]": {"target": "T1, CST (CTC1-STN1-TEN1)", "experiment": "fluorescence anisotropy; 200 mM KCl; FA: 200 mM NaCl, KCl or LiCl, 20 mM HEPES pH 7.4, 1 mM DTT, 22-25 C, 375 or 750 pM oligo, Kd,app +/- SEM; EMSA: 20 mM HEPES pH 7.4, 200 mM KCl, 1 nM 32P oligo", "details": "protein: recombinant, tags: 2xFLAG N-term on CTC1, 6xHis N-term on STN1 and TEN1, copies: 1;1;1, label: 5' fluorescein, linear in LiCl"}, "[6]": {"target": "T2, RPA WT (RPA70-RPA32-RPA14)", "experiment": "fluorescence anisotropy; 200 mM KCl; FA: 200 mM NaCl, KCl or LiCl, 20 mM HEPES pH 7.4, 1 mM DTT, 22-25 C, 375 or 750 pM oligo, Kd,app +/- SEM; EMSA: 20 mM HEPES pH 7.4, 200 mM KCl, 1 nM 32P oligo", "details": "protein: recombinant, tags: 6xHis N-term on RPA70 and RPA14, copies: 1;1;1, label: 5' fluorescein, linear in LiCl"}, "[7]": {"details": "intramolecular G4 at 3' end, 5' tail"}, "[8]": {"details": "parallel G4 in KCl (predominantly unimolecular)"}, "[9]": {"details": "intramolecular G4 at 5' end, 18 nt 3' tail"}}}
{"binder": "AGTGTGAGTGTGAGTGTTAGGGTTAGGGTTAGGGTTAGGG (structured_DNA)", "note": "[Tel40 3' G4]", "values": [{"measurement": "Kd", "setting": "[1]; intramolecular G4 at 3' end, 5' tail, linear in LiCl", "result": "2.3 ± 0.4", "unit": "nM"}, {"measurement": "Kd", "setting": "[2]; [7]", "result": "0.4 ± 0.08", "unit": "nM"}, {"measurement": "Kd", "setting": "[3]; [7]", "result": "1.09 ± 0.1", "unit": "nM"}, {"measurement": "Kd", "setting": "[4]; [7]", "result": "0.68 ± 0.16", "unit": "nM"}, {"measurement": "Kd", "setting": "[5]; [7]", "result": "3.4 ± 0.5", "unit": "nM"}, {"measurement": "Kd", "setting": "[6]; [7]", "result": "0.52 ± 0.11", "unit": "nM"}]}
{"binder": "CGGGGCGGGCCTTGGGCGGGGT (structured_DNA)", "note": "[2M27]", "values": [{"measurement": "Kd", "setting": "[3]; [8]", "result": "10.8 ± 0.2", "unit": "nM"}, {"measurement": "Kd", "setting": "[5]; [8]", "result": "13.3 ± 0.9", "unit": "nM"}]}
{"binder": "AGGGTTAGGGTTAGGGTTAGGGTGAGTGTGAGTGTGAGTG (structured_DNA)", "note": "[Tel40 5' G4]", "values": [{"measurement": "Kd", "setting": "[1]; intramolecular G4 at 5' end, 18 nt 3' tail, linear in LiCl", "result": "1.47 ± 0.23", "unit": "nM"}, {"measurement": "Kd", "setting": "[2]; [9]", "result": "0.78 ± 0.08", "unit": "nM"}, {"measurement": "Kd", "setting": "[3]; [9]", "result": "1.53 ± 0.17", "unit": "nM"}, {"measurement": "Kd", "setting": "[4]; [9]", "result": "0.82 ± 0.15", "unit": "nM"}, {"measurement": "Kd", "setting": "[6]; [9]", "result": "0.85 ± 0.21", "unit": "nM"}]}
{"binder": "TAGGGAGGGTAGGGAGGGT (structured_DNA)", "note": "[2LBY]", "values": [{"measurement": "Kd", "setting": "[3]; parallel G4 in KCl", "result": "11.5 ± 1.3", "unit": "nM"}, {"measurement": "Kd", "setting": "[5]; parallel G4 in KCl", "result": "26.5 ± 1.5", "unit": "nM"}]}
{"binder": "AGTGTGAGTTAGGGTTAGGGTTAGGGTTAGGGTGAGTGTG (structured_DNA)", "note": "[Tel40 Middle G4]", "values": [{"measurement": "Kd", "setting": "[1]; intramolecular G4 in middle, linear in LiCl", "result": "1.04 ± 0.21", "unit": "nM"}, {"measurement": "Kd", "setting": "[2]; intramolecular G4 in middle", "result": "0.28 ± 0.03", "unit": "nM"}, {"measurement": "Kd", "setting": "[3]; intramolecular G4 in middle", "result": "1.94 ± 0.16", "unit": "nM"}, {"measurement": "Kd", "setting": "[4]; intramolecular G4 in middle", "result": "0.61 ± 0.13", "unit": "nM"}, {"measurement": "Kd", "setting": "[5]; intramolecular G4 in middle", "result": "4.4 ± 0.3", "unit": "nM"}, {"measurement": "Kd", "setting": "[6]; intramolecular G4 in middle", "result": "0.46 ± 0.05", "unit": "nM"}]}
{"binder": "CCCTAACCCTAACCCTAACCCT (ssDNA)", "note": "[C22]", "values": [{"measurement": "Kd", "setting": "[1]; linear", "result": "184 ± 28", "unit": "nM"}]}
{"binder": "AGGGCTAGGGCTAGGGCTAGGG (structured_DNA)", "note": "[2KM3]", "values": [{"measurement": "Kd", "setting": "[3]; antiparallel G4 in KCl", "result": "4.5 ± 0.3", "unit": "nM"}]}
{"binder": "TTGGGTTAGGGTTAGGGTTAGGGA (structured_DNA)", "note": "[2GKU]", "values": [{"measurement": "Kd", "setting": "[3]; hybrid 1 G4 in KCl", "result": "11.9 ± 1.2", "unit": "nM"}]}
{"binder": "GGGTAGGGAGCGGGAGAGGG (structured_DNA)", "note": "[6GZN]", "values": [{"measurement": "Kd", "setting": "[3]; antiparallel G4 in KCl", "result": "1.1 ± 0.3", "unit": "nM"}]}
{"binder": "TAGGGTTAGGGTTAGGGTTAGGGTT (structured_DNA)", "note": "[2JSL]", "values": [{"measurement": "Kd", "setting": "[3]; hybrid 2 G4 in KCl", "result": "8.3 ± 0.6", "unit": "nM"}]}
